Assay: stability against denaturation by guanidine hydrochloride (remaining biotin-binding ability)
Assay type: physicochemical
Experimental: Biotin-binding ability was used as an estimate of the structural stability.
Structural stability of core streptavidins against denaturation was estimated from the biotin-binding ability after incubation in guanidine hydrochloride solutions at pH 7.4 and pH 1.5. […] Then, 1.4 μl (680 pmol) of D-[carbonyl-^14 C]biotin was added to each solution. The mixture was incubated at 22° C. for 10 minutes and streptavidin-biotin complexes were separated from free, unbound biotin using PD-10 columns which had been equilibrated with the same guanidine hydrochloride solution (R. -D. Wei, Methods Enzymol. 18A:424-27, 1980).
All of the three core streptavidins bound more than 0.96 molecules of biotin per subunit at pH 7.4 without guanidine hydrochloride and the biotin-binding ability remaining in guanidine hydrochloride is indicated in percent.

[1] = 4 M guanidine hydrochloride, pH 1.5
[2] = 6 M guanidine hydrochloride, pH 7.4

For “full-length streptavidin: full length streptavidin, monomer of 159 amino acids”, which “biotin bound per subunit in guanidine hydrochloride” value [1] is on record?
Its value is “about 0.826 molecules biotin per subunit”.

What about the “reduction (loss) of biotin-binding ability” value [1] of the same substance?
The value was about 15%.

What about the “biotin bound per subunit in guanidine hydrochloride” value [2] of the same substance?
The value was “about 0.768 molecules biotin per subunit”.

And the “reduction in biotin-binding ability” value [2]?
Its value is “about 20%”.

— patent US6022951A (priority 1996, dated 2000)
